Assay results as given in article PMC10808242, “Antibodies from dengue patients with prior exposure to Japanese encephalitis virus are broadly neutralizing against Zika virus” (Communications Biology, 2024).

Assays:
[1] = target: DENV-1 virus-like particle (prM/E VLP) (dengue virus serotype 1)
[2] = target: ZIKV VLP with E R193A (Zika virus); experiment: ELISA
[3] = target: ZIKV VLP with E T231A (Zika virus); experiment: ELISA
[4] = target: T1, mature form virus-like particles of dengue virus serotype 2 (mD2VLP) (Dengue virus type 2, strain 16681 …, UniProt A0A173DS53); experiment: cryo-EM structure; settings: both partners purified
T1 construct: also called mature DENV-2 VLP; pVD2i-C18S; copies: 60 +

B1: huMAb K5 expressed as full-length human IgG1 (K5-IgG1) (antibody, V domains shown)
VH: EVQLLESGAEVKKPGSSVKVSCQASGDTFSNSDINWVRQAPGQGLEWMGGIIPAYDTTNYARTFQGRVAITADKSTSTVYMELSRLRSEDTAVYYCATDQRDYFGLGNHFNAQHFWGQGTLVTVSS
VL: AIRMTQTPLSLSASVGDRVTITCRASQSISNYLNWYQQRPGKAPNLLIYTASNLHSGVPSRFSGSGSGTDFTLTISSLQPEDFATYYCQQSYSGGYTFGQGPSWEIK
[1]
  FRμNT50, neutralisation of the prototype DENV-1 strain on Vero cells: 0.771 µg/mL
[2]
  percent loss of binding relative to ZIKV WT VLP: 70%
[3]
  percent loss of binding relative to ZIKV WT VLP: 70%

B2: huMAb K8b expressed as full-length human IgG1 (K8b-IgG1) (antibody, V domains shown)
VH: QVQLVQPGAEVVKPGASVKLSCKTSGYTFTSNWMHWVKQAPGQGLEWIGEIDPSDSYTNYNQNFQGKAKLTVDKSTSTAYMEVSSLRSDDTAVYYCARGSNPYYYAMDYWGQGTSVTVSS
VL: EIVMMQSPLTLSLSPGERATLSCRASQSVSSNYLAWYQQRPGQAPRLLIYGVSSRATGVPVRFSGSGSGTDFTLTISRLEPEDFAVYYCQHYGGSLSWTFGQGTKVEIK
notes: also called pVCHIg-hG1-K8b + pVCLIg-hκ-K8b
[4]
  stoichiometry N: 60 F(ab) arms per VLP of 60 E proteins
